In US20250255816A1, “POLYSULFIDE MICROPARTICLES AND USES THEREOF” (Vanderbilt University, priority 2022, published 2025):

What was measured:
[1] = free protein, intravitreal; cited from earlier work
[2] = test system: retinal reactive oxygen species (ROS); assay: Retinal ROS levels by Amplex Red dye in mouse MOM model of glaucoma; design: species or system C57/B16 mice; details: intravitreal injection, 6 weeks post-MP injection, ex vivo
Protocol: (§1) Poly(propylene sulfide-co-ethylene sulfide) (PPSES) was synthesized using ring opening polymerization with an equimolar feed of each monomer. EPO-loaded MPs were formulated by first producing EPO-loaded dextran nanoparticles and loading these into PPSES MPs. The S/O/W technique was used to load EPO. To establish the microbead occlusion model (MOM, FIG. 10) of glaucoma, polystyrene beads were injected into the anterior chamber of C57/B16 mice. Saline-injected mice served as healthy controls. After 1 week, phosphate buffered saline (PBS)-free EPO, blank MPs, or EPO-loaded MPs were injected intravitreally. At 6 weeks post-MP injection, electroretinograms (ERGs) and visual evoked potential (VEP) tests were performed intravitally. Retinal tissue was evaluated ex vivo for EPO and ROS levels using ELISA and Amplex Red dye, respectively.

[3] = Retinal EPO levels by ELISA in mouse microbead occlusion model (MOM) of glaucoma; design: species or system C57/B16 mice; details: intravitreal injection, 6 weeks post-MP injection, ELISA of retinal tissue ex vivo
Protocol: as §1

Substance: Erythropoietin [EPO]
- half-life intravitreally [1]: ~72 h
- retinal ROS levels [2]: Both groups outperformed free EPO
- retinal EPO levels (sustained EPO release) [3]: not different from PBS animals
